Our source for the response values is PMC6826516 (2019).

To fix the notation:
B1: SmBiT-TAZ-Flag (TAZ aa 13-119), wild type [not stated] / LgBiT-TEAD1-Myc (TEAD1 aa 194-411), wild type [not stated] (parent complex)
chain 1: PGQQVIHVTQDLDTDLEALFNSVMNPKPSSWRKKILPESFFKEPDSGSHSRQSSTDSSGGHPGPRLAGGAQHVRSHSSPASLQLGTGAGAAGSPAQQHAHLRQQSYD
chain 2: RSIGTTKLRLVEFSAFLEQQRDPDSYNKHLFVHIGHANHSYSDPLLESVDIRQIYDKFPEKKGGLKELFGKGPQNAFFLVKFWADLNCNIQDDAGAFYGVTSQYESSENMTVTCSTKVCSFGKQVVEKVETEYARFENGRFVYRINRSPMCEYMINFIHKLKHLPEKYMMNSVLENFTILLVVTNRDTQETLLCMACVFEVSNSEHGAQHHIYRLVKD

The assay covers variants of B1. In words: NanoBiT assay (split-luciferase biosensor) in lysates of transfected HEK293T cells; 48 h after transfection; equal amounts of each biosensor plasmid; read off a plot.
For chain 1 W31A, chain 1 K34A, chain 1 L36A, chain 1 S39A, chain 1 F40A, chain 1 F41A, the response is ~430 fold over LgBiT-TEAD1 alone.
